In patent publication US20160297884A1 (Pfizer, published 2016):
Where a chain is given by its changes, count along the chain named.

T1: Human BCMA (human, UniProt Q02223 1-54, limits assumed)
T1 construct: Soluble analyte in SPR; construct not described; also called huBCMA; B-cell maturation antigen
T1 sequence (looked up): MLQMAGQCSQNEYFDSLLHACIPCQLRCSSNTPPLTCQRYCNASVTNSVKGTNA

B1: L3.PY/H2.QR (antibody, V domains shown)
VH: EVQLLESGGGLVQPGGSLRLSCAASGFTFGSYAMTWVRQAPGKGLEWVSAISGSGGNTFYADQRKGRFTISRDNSKNTLYLQMNSLRAEDTAVYYCARVSPIASGMDYWGQGTLVTVSS
VL: EIVLTQSPGTLSLSPGERATLSCRASQSVSSSYLAWYQQKPGQAPRLLIYGASSRATGIPDRFSGSGSGTDFTLTISRLEPEDFAVYYCQHYPYPPSFTFGQGTKVEIK
notes: IgG
B2: L3.PY/L1.PH/P6E01 (antibody, V domains shown)
VH: B1 VH with Q63S, R64V
VL: B1 VL with S31P, S32H
notes: IgG
B3: L3.PY/H2.YQ (antibody, V domains shown)
VH: B1 VH with G53Y, S54Q, Q63S, R64V
VL: B1 VL
notes: IgG
B4: L3.PY/L1.AH/H3.AQ (antibody, V domains shown)
VH: B1 VH with Q63S, R64V, S104A, G105Q
VL: B1 VL with S31A, S32H
notes: IgG
B5: L3.PY/L1.AH/H3.AE (antibody, V domains shown)
VH: B1 VH with Q63S, R64V, S104A, G105E
VL: B1 VL with S31A, S32H
notes: IgG
B6: L3.PY/L1.AH/H2.LT (antibody, V domains shown)
VH: B1 VH with G53L, S54T, Q63S, R64V
VL: B1 VL with S31A, S32H
notes: IgG
B7: L3.PY/L1.PS/H2.HA (antibody, V domains shown)
VH: B1 VH with G53H, S54A, Q63S, R64V
VL: B1 VL with L34P, A35S
notes: IgG
B8: L3.PY/L1.AH/H2.YQ (antibody, V domains shown)
VH: B1 VH with G53Y, S54Q, Q63S, R64V
VL: B1 VL with S31A, S32H
notes: IgG
B9: L3.PY/H3.TAQ (antibody, V domains shown)
VH: B1 VH with Q63S, R64V, A97T, S104A, G105Q
VL: B1 VL
notes: IgG
B10: L3.PY/L1.AH/H2.HA (antibody, V domains shown)
VH: B1 VH with G53H, S54A, Q63S, R64V
VL: B1 VL with S31A, S32H
notes: IgG
B11: L3.PY/L1.PS/H3.AE (antibody, V domains shown)
VH: B1 VH with Q63S, R64V, S104A, G105E
VL: B1 VL with L34P, A35S
notes: IgG
B12: L3.PY/L1.PS/H2.YQ (antibody, V domains shown)
VH: B1 VH with G53Y, S54Q, Q63S, R64V
VL: B1 VL with L34P, A35S
notes: IgG
B13: L3.PY/L1.AH/P6E01 (antibody, V domains shown)
VH: B1 VH with Q63S, R64V
VL: B1 VL with S31A, S32H
notes: IgG
B14: L3.PY/L1.AH/H3.YA (antibody, V domains shown)
VH: B1 VH with Q63S, R64V, A103Y, S104A
VL: B1 VL with S31A, S32H
notes: IgG
B15: L3.PY/H3.AE (antibody, V domains shown)
VH: B1 VH with Q63S, R64V, S104A, G105E
VL: B1 VL
notes: IgG
B16: L3.PY/L1.PS/H2.DY (antibody, V domains shown)
VH: B1 VH with S52D, G53Y, Q63S, R64V
VL: B1 VL with L34P, A35S
notes: IgG
B17: L3.PY/H3.YA (antibody, V domains shown)
VH: B1 VH with Q63S, R64V, A103Y, S104A
VL: B1 VL
notes: IgG
B18: L3.PY/L1.PS/H2.QL (antibody, V domains shown)
VH: B1 VH with R64L
VL: B1 VL with L34P, A35S
notes: IgG
B19: L3.PY/L1.AH/H2.DY (antibody, V domains shown)
VH: B1 VH with S52D, G53Y, Q63S, R64V
VL: B1 VL with S31A, S32H
notes: IgG
B20: L3.PY/L1.AH/H2.QR (antibody, V domains shown)
VH: B1 VH
VL: B1 VL with S31A, S32H
notes: IgG
B21: L3.PY/L1.AH/H2.QL (antibody, V domains shown)
VH: B1 VH with R64L
VL: B1 VL with S31A, S32H
notes: IgG
B22: L3.PY/L1.PS/H3.AQ (antibody, V domains shown)
VH: B1 VH with Q63S, R64V, S104A, G105Q
VL: B1 VL with L34P, A35S
notes: IgG
B23: L3.PY/L1.PS/H2.LT (antibody, V domains shown)
VH: B1 VH with G53L, S54T, Q63S, R64V
VL: B1 VL with L34P, A35S
notes: IgG
B24: L3.PY/H3.AQ (antibody, V domains shown)
VH: B1 VH with Q63S, R64V, S104A, G105Q
VL: B1 VL
notes: IgG
B25: L3.PY/L1.FF/P6E01 (antibody, V domains shown)
VH: B1 VH with Q63S, R64V
VL: B1 VL with S32F, Y33F
notes: IgG

Biological target: T1, Human BCMA
Assay: SPR, IgG immobilised, 37 C
How it was run: (§1)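 Rate constants come from a 1:1 Langmuir model including mass transport, fitted to double-referenced sensorgrams. Analyte was human or cynomolgus BCMA in five rising concentrations up to 50 nM over amine-coupled IgG; runs were at 25° C or 37° C.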

Binder | Kd [nM] | T ½ [min] | koff [s⁻¹] | kon [M⁻¹ s⁻¹]
B1 | 0.46 | 9.75 | 0.00119 | 2.56e+06
B2 | 0.32 | 12.7 | 0.000913 | 2.81e+06
B3 | 0.6 | 7.41 | 0.00156 | 2.58e+06
B4 | 0.65 | 5.85 | 0.00197 | 3.03e+06
B5 | 0.52 | 6.7 | 0.00173 | 3.32e+06
B6 | 0.39 | 9.38 | 0.00123 | 3.16e+06
B7 | 3.21 | 1.09 | 0.0106 | 3.3e+06
B8 | 0.8 | 6 | 0.00193 | 2.42e+06
B9 | 0.37 | 10.1 | 0.00114 | 3.08e+06
B10 | 0.54 | 6.37 | 0.00181 | 3.33e+06
B11 | 0.46 | 7.93 | 0.00146 | 3.14e+06
B12 | 1.28 | 2.69 | 0.0043 | 3.35e+06
B13 | 0.49 | 9.19 | 0.00126 | 2.55e+06
B14 | 0.5 | 7.73 | 0.0015 | 3e+06
B15 | 0.42 | 8.32 | 0.00139 | 3.29e+06
B16 | 1.12 | 3.2 | 0.00361 | 3.22e+06
B17 | 0.37 | 9.82 | 0.00118 | 3.15e+06
B18 | 20.6 | 0.04 | 0.314 | 1.52e+07
B19 | 0.5 | 7.62 | 0.00152 | 3.05e+06
B20 | 0.58 | 6.39 | 0.00181 | 3.13e+06
B21 | 0.53 | 7.22 | 0.0016 | 3.04e+06
B22 | 0.55 | 6.46 | 0.00179 | 3.26e+06
B23 | 1.37 | 2.49 | 0.00465 | 3.4e+06
B24 | 0.56 | 6.69 | 0.00173 | 3.08e+06
B25 | 0.59 | 8.18 | 0.00141 | 2.39e+06

Biological target: T2, cynomolgus monkey BCMA (cynomolgus monkey, UniProt A0A2K5UD97 1-53)
T2 construct: Soluble analyte in SPR; construct not described; also called cyBCMA; Cyno BCMA
T2 sequence (A0A2K5UD97 entry or part of it): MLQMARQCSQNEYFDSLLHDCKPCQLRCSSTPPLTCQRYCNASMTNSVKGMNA
Assay: SPR, IgG immobilised, 37 C
How it was run: as §1

Binder | Kd [nM] | T ½ [min] | koff [s⁻¹] | kon [M⁻¹ s⁻¹]
B1 | 3.02 | 1.76 | 0.00658 | 2.18e+06
B2 | 3.63 | 1.46 | 0.00789 | 2.17e+06
B3 | 2.53 | 1.86 | 0.00621 | 2.46e+06
B4 | 1.78 | 2.9 | 0.00399 | 2.24e+06
B5 | 1.58 | 3.25 | 0.00356 | 2.25e+06
B6 | 1.35 | 3.91 | 0.00296 | 2.19e+06
B7 | 1.86 | 4.3 | 0.00269 | 1.45e+06
B8 | 2.74 | 2.68 | 0.00431 | 1.58e+06
B9 | 1.7 | 2.64 | 0.00437 | 2.57e+06
B10 | 1.7 | 2.63 | 0.00439 | 2.58e+06
B11 | 1.68 | 2.8 | 0.00413 | 2.46e+06
B12 | 1.87 | 3.09 | 0.00374 | 2e+06
B13 | 2.65 | 2.02 | 0.00572 | 2.16e+06
B14 | 2.22 | 2.2 | 0.00526 | 2.37e+06
B15 | 1.79 | 2.29 | 0.00504 | 2.82e+06
B16 | 1.99 | 3.06 | 0.00378 | 1.9e+06
B17 | 1.88 | 2.14 | 0.0054 | 2.87e+06
B18 | 0.97 | 18.2 | 0.000636 | 657000
B19 | 1.95 | 2.56 | 0.00451 | 2.32e+06
B20 | 2.23 | 2.35 | 0.00491 | 2.2e+06
B21 | 3.65 | 1.21 | 0.00955 | 2.62e+06
B22 | 1.72 | 2.67 | 0.00433 | 2.52e+06
B23 | 1.89 | 2.81 | 0.00411 | 2.17e+06
B24 | 1.94 | 2.14 | 0.00539 | 2.77e+06
B25 | 2.41 | 1.96 | 0.00591 | 2.45e+06
